Measured values published in US20130174289A1, “Na+/Mg2+ Exchanger” (FBN - Leibnitz-Institut fur Nutztierbiologie, priority 2010, published 2013).

B1: 3-beta-hydroxysteroid-Delta(8), Delta(7)-isomerase OS = Rattus norvegicus: SLC41A1 complex-forming partner from split-ubiquitin screen; GN = Ebp (protein, UniProt Q9JJ46 2-230, looked up)
3-beta-hydroxysteroid-Delta(8) …: TTNMLPLHPYWPRHLRLDNFVPNDLPTWHILVGLFSFSGVLIVITWLLSSRVSVVPLGTGRRLALCWFAVCTFIHLVIEGWFSFYHEILLEDQAFLSQLWKEYSKGDSRYILSDGFIVCMESVTACLWGPLSLWVVIAFLRHQPFRFVLQLVVSVGQIYGDVLYFLTELRDGFQHGELGHPLYFWFYFVIMNAIWLVIPGILVFDAIKHLTNAQSMLDNKVMKIKSKHN
B2: B-cell receptor-associated protein 31 OS = Homo sapiens: SLC41A1 complex-forming partner from split-ubiquitin screen; GN = BCAP31 (protein)
chain: MSLQWTAVATFLYAEVFVVLLLCIPFISPKRWQKIFKSRLVELLVSYGNTFFVVLIVILVLLVIDAVREIRKYDDVTEKVNLQNNPGAMEHFHMKLFRAQRNLYIAGFSLLLSFLLRRLVTLISQQATLLASNEAFKKQAESASEAAKKYMEENDQLKKGAAVDGGKLDVGNAEVKLEEENRSLKADLQKLKDELASTKQKLEKAENQVLAMRKQSEGLTKEYDRLLEEHAKLQAAVDGPMDKKEE
B3: Protein YIPF6 OS = Homo sapiens: SLC41A1 complex-forming partner from split-ubiquitin screen; GN = YIPF6 (protein, UniProt Q96EC8 2-236, looked up)
Protein YIPF6: AEAEESPGDPGTASPRPLFAGLSDISISQDIPVEGEITIPMRSRIREFDSSTLNESVRNTIMRDLKAVGKKFMHVLYPRKSNTLLRDWDLWGPLILCVTLALMLQRDSADSEKDGGPQFAEVFVIVWFGAVTITLNSKLLGGNISFFQSLCVLGYCILPLTVAMLICRLVLLADPGPVNFMVRLFVVIVMFAWSIVASTAFLADSQPPNRRALAVYPVFLFYFVISWMILTFTPQ

Target: T1, SLC41A1 (Homo sapiens, UniProt Q8IVJ1)
T1 construct: split-ubiquitin half (bait fusion); expressed in transfected cells
Test: Split-ubiquitin screen for SLC41A1 complex-forming partners
Format: binding
Conditions: for occurrence: frequency of occurrence = number of clones that revealed interaction with SLC41A1
Description: These SLC41A1 complex-forming partners were screened out by the split-ubiquitin method, which is well known in the art and are listed in detail in Table 1. The ubiquitin-based split protein sensor (USPS) is the method that makes it possible to detect and monitor protein-protein interactions as a function of time, at the natural sites of these interactions in a living cell. Details on the method can be found in Johnsson and Varshaysky, 1994.
In order to shorten the table, multiple entries were deleted and only the frequency of occurrence (Occurrence) is indicated as a number. The singletons listed in Table 2 are the weakest partners. They are organized from the strongest to the weakest.
In the above tables 1 and 2 underlined names indicate highly connected proteins, found in the majority of DUALmembrane SU-YTH screens. Highly connected proteins include chaperones, stress-induced endoplasmatic reticulum proteins, components of the translocon machinery and proteins involved in membrane protein sorting and transport.

T1 sequence (Q8IVJ1 whole entry, the tested form may be a part): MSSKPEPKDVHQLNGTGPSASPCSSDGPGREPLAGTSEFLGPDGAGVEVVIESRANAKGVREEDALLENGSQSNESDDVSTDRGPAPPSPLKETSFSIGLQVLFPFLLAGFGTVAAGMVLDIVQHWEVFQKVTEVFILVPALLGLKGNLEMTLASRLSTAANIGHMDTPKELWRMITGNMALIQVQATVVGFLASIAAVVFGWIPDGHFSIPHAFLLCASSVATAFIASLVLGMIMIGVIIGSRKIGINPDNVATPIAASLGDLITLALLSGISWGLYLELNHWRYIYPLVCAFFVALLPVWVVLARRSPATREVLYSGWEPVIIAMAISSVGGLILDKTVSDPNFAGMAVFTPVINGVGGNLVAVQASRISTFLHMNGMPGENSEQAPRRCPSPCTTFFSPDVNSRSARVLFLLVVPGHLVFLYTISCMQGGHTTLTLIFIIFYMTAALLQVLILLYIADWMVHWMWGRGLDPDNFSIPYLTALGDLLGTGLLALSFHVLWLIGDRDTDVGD

Row | Molecule | occurrence | clones identified with interaction with SLC41A1 (split-ubiquitin screening)
1 | B1 | 1 | 
2 | B2 |  | Ten
3 | B3 | 2 | 
